Laboratory results as given in the supplement of paper PMC9112550, “Optimization of the antimicrobial peptide Bac7 by deep mutational scanning” (BMC Biology, 2022).

Test system: Escherichia coli TOP10
Test: shrunken log2 fold change of peptide-encoding DNA abundance (4.5 h post-induction vs induction); higher = less antimicrobial activity (less host growth inhibition)
Conditions: time post-induction: 4.5 h; library: site-saturation at positions 5, 18, 19, 20
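Note: peptides expressed intracellularly from a pBAD plasmid library in pooled LB shake-flask culture, induced with 0.3% L-arabinose, DNA abundance read by NGS, three biological replicates, DESeq2 with apeglm shrinkage.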

| Sequence | shrunken log2 fold change |
| --- | --- |
| RRIRFRPPRLPRPRPRPHCVPRP | -0.216 |
| RRIRSRPPRLPRPRPRPHWDPRP | 0.00395 |
| RRIRERPPRLPRPRPRPPMYPRP | -0.458 |
| RRIRMRPPRLPRPRPRPWNQPRP | -0.0405 |
| RRIRWRPPRLPRPRPRPHLCPRP | -0.147 |
| RRIRGRPPRLPRPRPRPTSYPRP | 0.105 |
| RRIRFRPPRLPRPRPRPQHDPRP | -0.394 |
| RRIRFRPPRLPRPRPRPLRSPRP | 0.259 |
| RRIRERPPRLPRPRPRPYKLPRP | -1.4 |
| RRIRFRPPRLPRPRPRPTVRPRP | 0.0843 |
| RRIRVRPPRLPRPRPRPNHFPRP | -0.346 |
| RRIRGRPPRLPRPRPRPNQGPRP | 0.0411 |
| RRIRCRPPRLPRPRPRPAIIPRP | -0.786 |
| RRIRSRPPRLPRPRPRPAEWPRP | 1.02 |
| RRIRMRPPRLPRPRPRPGWCPRP | 0.181 |
| RRIRFRPPRLPRPRPRPVQKPRP | 0.00252 |
| RRIRERPPRLPRPRPRPPMLPRP | 1.29 |
| RRIRLRPPRLPRPRPRPPYRPRP | -0.0286 |
| RRIRTRPPRLPRPRPRPGRYPRP | 0.123 |
| RRIRNRPPRLPRPRPRPVHYPRP | -0.124 |
| RRIRRRPPRLPRPRPRPHYFPRP | -0.173 |
| RRIRHRPPRLPRPRPRPRQNPRP | 0.0341 |
| RRIRCRPPRLPRPRPRPWLWPRP | 0.0682 |
| RRIRVRPPRLPRPRPRPICSPRP | -0.154 |
| RRIRFRPPRLPRPRPRPYTYPRP | -0.141 |

| Sequence | shrunken log2 fold change |
| --- | --- |
| RRIRHRPPRLPRPRPRPEVEPRP | -0.00133 |
| RRIRCRPPRLPRPRPRPHMIPRP | -0.0573 |
| RRIRSRPPRLPRPRPRPADRPRP | 0.308 |
| RRIRFRPPRLPRPRPRPMNWPRP | -0.143 |
| RRIRGRPPRLPRPRPRPEAAPRP | 3.27 |
| RRIRCRPPRLPRPRPRPLCIPRP | -0.353 |
| RRIRDRPPRLPRPRPRPQIHPRP | -0.145 |
| RRIRWRPPRLPRPRPRPQYGPRP | -0.442 |
| RRIRWRPPRLPRPRPRPYCFPRP | -0.379 |
| RRIRWRPPRLPRPRPRPIAYPRP | 0.000575 |
| RRIRKRPPRLPRPRPRPLCNPRP | 1.06 |
| RRIRPRPPRLPRPRPRPVHFPRP | -0.342 |
| RRIRHRPPRLPRPRPRPIVLPRP | 0.00695 |
| RRIRFRPPRLPRPRPRPREIPRP | 0.0702 |
| RRIRTRPPRLPRPRPRPRCSPRP | -0.262 |
| RRIRCRPPRLPRPRPRPPLEPRP | 0.186 |
| RRIRNRPPRLPRPRPRPVKVPRP | -0.0708 |
| RRIRKRPPRLPRPRPRPEFMPRP | 0.541 |
| RRIRHRPPRLPRPRPRPICTPRP | -0.485 |
| RRIRGRPPRLPRPRPRPTVRPRP | 0.452 |
| RRIRGRPPRLPRPRPRPPHPPRP | 0.643 |
| RRIRRRPPRLPRPRPRPVVHPRP | -0.157 |
| RRIRKRPPRLPRPRPRPEFWPRP | 0.807 |
| RRIRFRPPRLPRPRPRPWVSPRP | -0.272 |
| RRIRRRPPRLPRPRPRPPQNPRP | 1.4 |

| Sequence | shrunken log2 fold change |
| --- | --- |
| RRIRERPPRLPRPRPRPQLKPRP | -0.358 |
| RRIRNRPPRLPRPRPRPFIIPRP | -0.41 |
| RRIRDRPPRLPRPRPRPQQIPRP | -0.148 |
| RRIRKRPPRLPRPRPRPKMTPRP | 0.187 |
| RRIRMRPPRLPRPRPRPWGFPRP | 0.0809 |
| RRIRCRPPRLPRPRPRPLNIPRP | -0.379 |
| RRIRQRPPRLPRPRPRPQIVPRP | -0.026 |
| RRIRERPPRLPRPRPRPRSPPRP | 0.0194 |
| RRIRERPPRLPRPRPRPPGMPRP | 0.0408 |
| RRIRERPPRLPRPRPRPKIVPRP | -0.0778 |
| RRIRDRPPRLPRPRPRPLPAPRP | 0.574 |
| RRIRCRPPRLPRPRPRPMVTPRP | -0.071 |
| RRIRRRPPRLPRPRPRPDQAPRP | -0.00925 |
| RRIRNRPPRLPRPRPRPIANPRP | 0.000407 |
| RRIRTRPPRLPRPRPRPKCYPRP | -0.0601 |
| RRIRHRPPRLPRPRPRPKYAPRP | -0.0413 |
| RRIRTRPPRLPRPRPRPELVPRP | 0.0224 |
| RRIRVRPPRLPRPRPRPVHPPRP | 0.312 |
| RRIRTRPPRLPRPRPRPPRTPRP | 0.281 |
| RRIRLRPPRLPRPRPRPNTSPRP | -0.333 |
| RRIRWRPPRLPRPRPRPHLRPRP | 0.039 |
| RRIRHRPPRLPRPRPRPCCSPRP | -0.313 |
| RRIRPRPPRLPRPRPRPHINPRP | -1.16 |
| RRIRGRPPRLPRPRPRPLTVPRP | 0.48 |
| RRIRIRPPRLPRPRPRPCTHPRP | -0.791 |

| Sequence | shrunken log2 fold change |
| --- | --- |
| RRIRKRPPRLPRPRPRPVVPPRP | -0.093 |
| RRIRGRPPRLPRPRPRPFGDPRP | 0.0154 |
| RRIRERPPRLPRPRPRPHERPRP | -0.00965 |
| RRIRFRPPRLPRPRPRPPVLPRP | 0.006 |
| RRIRQRPPRLPRPRPRPYPSPRP | -0.161 |
| RRIRARPPRLPRPRPRPWFRPRP | 0.133 |
| RRIRPRPPRLPRPRPRPIPYPRP | -0.384 |
| RRIRPRPPRLPRPRPRPRDTPRP | -0.0427 |
| RRIRLRPPRLPRPRPRPQYVPRP | 0.0564 |
| RRIRYRPPRLPRPRPRPQGFPRP | -0.0121 |
| RRIRYRPPRLPRPRPRPAWKPRP | 0.0184 |
| RRIRHRPPRLPRPRPRPNWTPRP | -0.0102 |
| RRIRLRPPRLPRPRPRPRCMPRP | -0.0665 |
| RRIRFRPPRLPRPRPRPGQFPRP | -0.148 |
| RRIRNRPPRLPRPRPRPPMKPRP | -0.216 |
| RRIRGRPPRLPRPRPRPHENPRP | 0.446 |
| RRIRNRPPRLPRPRPRPALLPRP | 0.504 |
| RRIRKRPPRLPRPRPRPYPYPRP | -0.125 |
| RRIRWRPPRLPRPRPRPMRAPRP | 1.2 |
| RRIRIRPPRLPRPRPRPWQDPRP | -0.0109 |
| RRIRARPPRLPRPRPRPWVSPRP | -0.0266 |
| RRIRYRPPRLPRPRPRPNNYPRP | -1.22 |
| RRIRQRPPRLPRPRPRPRLKPRP | 0.161 |
| RRIRMRPPRLPRPRPRPNVHPRP | -0.333 |
| RRIRDRPPRLPRPRPRPRCAPRP | 0.885 |

| Sequence | shrunken log2 fold change |
| --- | --- |
| RRIRSRPPRLPRPRPRPENDPRP | -0.0386 |
| RRIRKRPPRLPRPRPRPYRGPRP | -0.231 |
| RRIRKRPPRLPRPRPRPEITPRP | 2.03 |
| RRIRMRPPRLPRPRPRPFTLPRP | -0.0107 |
| RRIRQRPPRLPRPRPRPWVMPRP | -0.0363 |
| RRIRDRPPRLPRPRPRPRYLPRP | -0.171 |
| RRIRQRPPRLPRPRPRPVQNPRP | 0.0137 |
| RRIRYRPPRLPRPRPRPDCVPRP | -0.3 |
| RRIRQRPPRLPRPRPRPINGPRP | -0.000925 |
| RRIRDRPPRLPRPRPRPVPHPRP | 0.012 |
| RRIRDRPPRLPRPRPRPFFVPRP | 0.0823 |
| RRIRMRPPRLPRPRPRPKHEPRP | 0.767 |
| RRIRPRPPRLPRPRPRPDGIPRP | 0.0121 |
| RRIRNRPPRLPRPRPRPRTQPRP | 0.11 |
| RRIRERPPRLPRPRPRPDEQPRP | -0.00815 |
| RRIRVRPPRLPRPRPRPGVSPRP | -0.141 |
| RRIRLRPPRLPRPRPRPCTNPRP | -0.094 |
| RRIRYRPPRLPRPRPRPSCIPRP | -0.118 |
| RRIRARPPRLPRPRPRPTMYPRP | -0.154 |
| RRIRWRPPRLPRPRPRPKEIPRP | 0.487 |
| RRIRGRPPRLPRPRPRPLNWPRP | 0.0909 |
| RRIRERPPRLPRPRPRPSNNPRP | -0.973 |
| RRIRFRPPRLPRPRPRPWVEPRP | -0.0273 |
| RRIRERPPRLPRPRPRPDWLPRP | 0.00866 |
| RRIRPRPPRLPRPRPRPPGYPRP | 0.116 |

| Sequence | shrunken log2 fold change |
| --- | --- |
| RRIRSRPPRLPRPRPRPTYQPRP | -0.0198 |
| RRIRLRPPRLPRPRPRPAVYPRP | 0.00171 |
| RRIRGRPPRLPRPRPRPCHEPRP | 0.492 |
| RRIRRRPPRLPRPRPRPQVDPRP | 0.237 |
| RRIRVRPPRLPRPRPRPNPRPRP | 0.21 |
| RRIRWRPPRLPRPRPRPYLKPRP | -0.911 |
| RRIRVRPPRLPRPRPRPFPAPRP | -0.121 |
| RRIRERPPRLPRPRPRPACLPRP | -0.0938 |
| RRIRYRPPRLPRPRPRPCRFPRP | -0.241 |
| RRIRSRPPRLPRPRPRPDVQPRP | -0.147 |
| RRIRLRPPRLPRPRPRPWAEPRP | 0.13 |
| RRIRKRPPRLPRPRPRPGDPPRP | 1.21 |
| RRIRSRPPRLPRPRPRPDCYPRP | -0.374 |
| RRIRIRPPRLPRPRPRPLRIPRP | -0.346 |
| RRIRHRPPRLPRPRPRPHGNPRP | -1.11 |
| RRIRARPPRLPRPRPRPIWDPRP | 0.264 |
| RRIRMRPPRLPRPRPRPNPMPRP | 0.568 |
| RRIRMRPPRLPRPRPRPEGIPRP | 2.03 |
| RRIRLRPPRLPRPRPRPTAGPRP | 0.53 |
| RRIRSRPPRLPRPRPRPTMEPRP | 0.317 |
| RRIRMRPPRLPRPRPRPVDTPRP | 0.361 |
| RRIRSRPPRLPRPRPRPLIVPRP | -0.206 |
| RRIRQRPPRLPRPRPRPDDSPRP | -0.139 |
| RRIRWRPPRLPRPRPRPNTQPRP | 0.448 |
| RRIRNRPPRLPRPRPRPAINPRP | 0.0991 |
